Experimental data as given in patent US20240325562A1, “INTERNALIZING BINDING MOLECULES” (LinXis B.V., priority 2020, published 2024).

Target: hPDGFRB (Homo sapiens, UniProt P09619)
Experiment: Competition assays of PDGFRB VHHs on hPDGFRB
Assay type: binding
Conditions: IRDye800-conjugated SP26P as reporter
Experimental: Biparatopic VHH constructs contain two VHH which bind to a different epitope, i.e. which are non-competitive binders. To identify (a) pair(s) of non-competitive binders, competition assays were performed. In the example shown, an Alexa fluor-conjugate of the high affine VHH 13F11 was used as the reporter VHH (13F11-A647, see example 10.2). In the assay, a non-saturating amount (10 nM) of 13F11-A647 was incubated with immobilized hIGF2R-ECD in the presence or absence of 250 nM unconjugated competitor VHH to allow competition to take place.
Similar as to in example 6.1, competition assays were performed to identify unique hPDGFRB- or rPDGFRB binders. Across 10 PDGFRB-binding VHHs obtained from libraries 1 and 2 (e.g. the VHH raised against hPDGFRB), four main groups were identified being first SP01P, SP02P, SP07P and SP13P, second SP05P, SP08P and SP10P, third SP12P and SP20P and finally SP14P. All VHH within each of the first three groups mutually competed.
To evaluate whether the obtained VHHs would qualify as building blocks for multivalent VHH constructs that bind hPDGFRB as well as rPDGFRB (e.g. ‘species cross-reactive’ VHH constructs), competition assays were performed using the most promising VHHs SP02 (raised against hPDGFRB) and SP26P (raised against rPDGFRB).

Chain of hPDGFRB (P09619 33-532 limits assumed): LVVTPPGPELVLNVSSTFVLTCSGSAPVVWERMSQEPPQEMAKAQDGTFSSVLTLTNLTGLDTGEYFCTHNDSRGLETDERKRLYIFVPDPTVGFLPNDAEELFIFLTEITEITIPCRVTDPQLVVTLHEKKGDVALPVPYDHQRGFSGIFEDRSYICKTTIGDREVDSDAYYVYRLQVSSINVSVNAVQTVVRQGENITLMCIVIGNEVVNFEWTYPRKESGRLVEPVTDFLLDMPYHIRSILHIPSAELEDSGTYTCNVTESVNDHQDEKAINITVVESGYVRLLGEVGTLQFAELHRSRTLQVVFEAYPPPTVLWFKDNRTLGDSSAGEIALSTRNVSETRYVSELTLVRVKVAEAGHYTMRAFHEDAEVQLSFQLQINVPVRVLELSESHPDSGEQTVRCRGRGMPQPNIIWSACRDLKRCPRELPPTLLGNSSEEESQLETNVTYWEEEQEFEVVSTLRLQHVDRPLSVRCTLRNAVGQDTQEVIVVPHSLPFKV

| Molecule | competition between SP02 and SP26P |
| --- | --- |
| SP02P: VHH single domain antibody targeting PDGFRB, SEQ ID NO: 9 (protein) VHH: EVQLVESGGGLVQAGGSLRLSCAASESISSIEQMGWFRQAPGKQRALVAINTYGGRTVYTNSVEGRFTMSRDSAKNMVYLQMTSLEPEDTAVYYCYAQTTAWRGGVWGQGTQVTVSS | did not compete |

Same assay, conditions: VHHs from libraries 1 and 2; four main groups

| Molecule | epitope group (mutual competition) |
| --- | --- |
| SP14P: VHH single domain antibody targeting PDGFRB, SEQ ID NO: 81 (protein) VHH: EVQLVESGGGLVQAGDSLRLSCVVSGLTFSRYGMGWFRQATGKEREFVGGISVGSSGTMYPNSVKGRFTISRDNAKSTVYLQMNSLKPEDTAVYFCAAIDQGSFVQQRDYRYWGQGTQVTVSS | lone VHH |
| SP08P: VHH single domain antibody targeting PDGFRB, SEQ ID NO: 41 (protein) VHH: EVQLVESGGGLVQAGGSLRLSCAASGRTFNGYAMAWFRQAPGKERDFVASITWSYGYTYYADSAQGRFTISRDSAKNTVYLEMNSLKPEDTAVYYCAADPKASRFRILRQYAHWGQGTQVTVSS | second |
| SP02P: VHH single domain antibody targeting PDGFRB, SEQ ID NO: 9 (protein) VHH: EVQLVESGGGLVQAGGSLRLSCAASESISSIEQMGWFRQAPGKQRALVAINTYGGRTVYTNSVEGRFTMSRDSAKNMVYLQMTSLEPEDTAVYYCYAQTTAWRGGVWGQGTQVTVSS | first |
| SP13P: VHH single domain antibody targeting PDGFRB, SEQ ID NO: 73 (protein) VHH: EVQLVESGGGLVQPGGSLRLSCAASESIFSINYMAWYRQAPGKQRELVAFSIDGSSTNYVDSVRGRFTASRDNAENTLYLQMNSLKPEDTAVYYCYAQGNTWAAGVWGQGTQVTVSS | first |
| SP12P: VHH single domain antibody targeting PDGFRB, SEQ ID NO: 65 (protein) VHH: EVQLVESGGGLVQAGGSLRLSCVISGRTSPTYPMGWFRQSPGNEREFVASINWSGGWRNYADSVKGRFTISRDDAKNTVYLQMNSLKPEDTAVYYCARGQYSSGTPVYAHEYAYWGQGTQVTVSS | third |
| SP01P: VHH single domain antibody targeting PDGFRB, SEQ ID NO: 1 (protein) VHH: EVQLVESGGGLAQAGGSLRLSCVASGNIDSANGMAWYRQAPGKQRELVAHITSGTSYYVASVEGRFTISRANAKDTWYLQMNSLKPEDTGVYYCFPIGLSAHWSQGTQVTVSS | first |
| SP07P: VHH single domain antibody targeting PDGFRB, SEQ ID NO: 33 (protein) VHH: EVQLVESGGGSVQTGGSLRLSCAASGRSFSTYAMAWFRQAPGKEREFVAAINRRATDTVYADSAKGRFIISRDNDKNTVYLQMDSLKTEDTAVYYCAAAKNAYDWRWDRLRDRDYWGQRGQGTQVTVSS | first |
| SP10P: VHH single domain antibody targeting PDGFRB, SEQ ID NO: 49 (protein) VHH: EVQLVESGGGLVQAGGSLRLSCAASGRTFNGYAMGWFRQAPGKERDFVAAITWSYGYTHYAESVKGRFSISRDSANNMVYLEMNSLKPEDTAVYYCAADPKASRFRTLRRYDYWGQGTQVTVSS | second |
| SP05P: VHH single domain antibody targeting PDGFRB, SEQ ID NO: 25 (protein) VHH: EVQLVESGGGLVQAGGSLRLSCAASGRTSFSGYAMAWFRQAPGKERDFVASITWSYGYTYYTDSAQGRFTISRDSAKNTVYLEMNSLKPEDTAVYYCAADPKASRFRILREYAYWGQGTQVTVSS | second |
